# Experimental data taken from patent publication US8008542B2, “Compositions, cells, and plants that include BKI1, a negative regulator of BRI1-mediated BR signaling” (The Salk Institute for Biological Studies, priority 2007, dated 2011).
# What was measured:
# BRI1 kinase = target: T1, BRI1 kinase (Arabidopsis thaliana, UniProt O22476); assay: In vitro phosphorylation of MBP-BKI1 by BRI1 kinase; type: biochemical; conditions: MBP-BKI1, BRI1-KD-HIS, 200 μM ATP; read-out: Km as substrate of BRI1 kinase in vitro
# T1 construct: The intracellular domain of BRI1(BRI1-KD) was cloned into pETBlue2 (Novagen) with a C-terminal His tag; made in house; host or cells: E. coli BL21 (DE3) Codon plus RIL
# T1 sequence (O22476 883-1158 limits assumed): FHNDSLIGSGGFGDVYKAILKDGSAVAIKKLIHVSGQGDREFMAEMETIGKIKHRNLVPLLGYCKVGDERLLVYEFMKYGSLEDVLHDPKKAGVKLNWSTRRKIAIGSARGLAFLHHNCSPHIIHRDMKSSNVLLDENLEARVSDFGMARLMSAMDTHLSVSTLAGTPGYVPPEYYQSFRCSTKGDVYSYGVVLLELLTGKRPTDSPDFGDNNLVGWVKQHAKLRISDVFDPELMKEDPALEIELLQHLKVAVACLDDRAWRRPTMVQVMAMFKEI
# Method: The intracellular domain of BRI1(BRI1-KD) was cloned into pETBlue2 (Novagen) with a C-terminal His tag. BKI1 was cloned into the pMAL-2cX vector (New England Biolabs) resulting in an Nterminal maltose-binding protein (MBP) fusion. BRI1-KD-HIS and MBP-BKI1 fusion proteins were expressed in BL21 (DE3) Codon plus RIL (Stratagene) and purified with Ni-NTA agarose (Qiagen) and […] (New England Biolabs), respectively. For the phosphorylation assays, each reaction contained 50 mM HEPES [pH7.4], 10 mM MgCl2, 10 mM MnCl2, 1 mM DTT, 200 μM ATP, 1 μl (10 μCi) [γ-32P] ATP, 0.5 μl of BRI1-His, different amounts of MBP-BKI1, and double deionized H2O in a final volume of 24 μl. Reactions were terminated by addition of 8 μl of 4×SDS loading buffer. Samples were separated on a 4-20% Tris-Glycine SDS-PAGE gel (Invitrogen), which was then stained, destained, dried, and visualized and quantified using a PhosphorImager. The kinetic analysis of the phosphorylation of MBP-BKI1 by BRI1 kinase was conducted with a GraphPad Prism 4 (http://www.graphpad.com/prism/Prism.htm). […] The BKI1-FLAG protein was detected by immunoblot analysis with anti-FLAG antibody.
# [1] = target: T2, intracellular domain of BRI1 (BRI1-KD) (Arabidopsis thaliana, UniProt O22476); assay: Yeast two-hybrid interaction with BRI1-KD; type: binding
# T2 construct: expressed in transfected cells; host or cells: yeast strain MaV203
# T2 sequence (O22476 828-1196): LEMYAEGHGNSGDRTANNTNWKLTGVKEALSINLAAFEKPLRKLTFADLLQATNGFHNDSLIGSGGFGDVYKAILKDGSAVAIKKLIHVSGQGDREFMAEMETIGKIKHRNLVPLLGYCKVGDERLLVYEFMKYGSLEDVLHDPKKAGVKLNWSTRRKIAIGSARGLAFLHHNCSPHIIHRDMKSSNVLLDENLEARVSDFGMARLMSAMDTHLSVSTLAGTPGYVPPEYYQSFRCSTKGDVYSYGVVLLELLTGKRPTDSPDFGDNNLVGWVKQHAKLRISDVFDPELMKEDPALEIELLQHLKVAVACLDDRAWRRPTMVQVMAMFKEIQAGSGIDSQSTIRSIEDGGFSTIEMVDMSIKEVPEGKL
# Method: (§2) A ProQuest Two-Hybrid system with Gateway technology (Invitrogen) was used. […] The full-length (BKI1-FL), and various truncated proteins, 1-252 (BKI1-ΔCT1), 1-299 (BKI1-ΔCT2), and 253-337 (BKI1-CT) of BKI1 were cloned into the pEXPAD502 vector. The kinase domain of NIK1 (NIK1-KD) (Fontes et al. (2004) Genes Dev. 18:2545), BAK1 (BAK1-KD), CLV1 (CLV1-KD), BRL1 (BRL1-KD), BRL3 (BRL3-KD), full length TTL, and full-length BIN2 were cloned into the pDBLeu vector. Interactions were tested on SD medium minus Leu, Trp, and His, and containing 25 mM 3-Amino-1,2,4-Triazole (3AT), using the yeast strain MaV203 according to the manufacturer's manual.
# CLV1 = target: T3, CLV1 (Arabidopsis thaliana, UniProt Q9SYQ8); assay: Yeast two-hybrid interaction with CLV1-KD; type: binding
# T3 construct: expressed in transfected cells; host or cells: yeast strain MaV203
# T3 sequence (Q9SYQ8 692-968 limits assumed): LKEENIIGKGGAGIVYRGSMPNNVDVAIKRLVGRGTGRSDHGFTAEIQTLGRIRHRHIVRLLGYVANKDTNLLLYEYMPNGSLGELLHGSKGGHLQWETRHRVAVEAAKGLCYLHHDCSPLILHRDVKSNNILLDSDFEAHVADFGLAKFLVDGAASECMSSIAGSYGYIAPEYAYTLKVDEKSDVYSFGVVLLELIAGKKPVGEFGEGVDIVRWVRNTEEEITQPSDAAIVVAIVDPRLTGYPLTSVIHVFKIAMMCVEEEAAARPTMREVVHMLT
# Method: (§1) BKI1 fused with GAL4-AD (BKI1-pEXAD502) interacts with the intracellular domain of BRI1 (BRI1-KD), but not CLV1 (CLV1-KD), BRL1 (BRL1-KD), and BRL3 (BRL3-KD), fused with GAL4-DB (in pDBLeu) in yeast. pDBLeu was used as a negative control. Each spot from left to right contains 10 μl yeast cell culture with OD600=0.2, 0.04, 0.008, and 0.0016.
# BRL3 = target: T4, BRL3 (Arabidopsis thaliana, UniProt Q9LJF3); assay: Yeast two-hybrid interaction with BRL3-KD; type: binding
# T4 construct: expressed in transfected cells; host or cells: yeast strain MaV203
# T4 sequence (Q9LJF3 858-1136 limits assumed): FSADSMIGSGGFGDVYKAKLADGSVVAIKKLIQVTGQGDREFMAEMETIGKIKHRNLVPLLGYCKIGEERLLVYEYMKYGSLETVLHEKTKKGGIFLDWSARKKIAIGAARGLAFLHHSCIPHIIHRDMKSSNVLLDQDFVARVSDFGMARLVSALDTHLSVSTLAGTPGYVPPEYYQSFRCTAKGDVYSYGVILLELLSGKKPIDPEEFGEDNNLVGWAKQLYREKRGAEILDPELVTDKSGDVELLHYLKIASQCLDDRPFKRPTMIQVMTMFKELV
# Method: as §1
# [2] = target: kinase-inactive BRI1 (mBRI1-KD) (Arabidopsis thaliana, UniProt O22476, K911E); conditions: yeast two-hybrid, ONPG liquid culture assay
# Sequence of kinase-inactive BRI1 (mBRI1-KD) (O22476 828-1196 K911E): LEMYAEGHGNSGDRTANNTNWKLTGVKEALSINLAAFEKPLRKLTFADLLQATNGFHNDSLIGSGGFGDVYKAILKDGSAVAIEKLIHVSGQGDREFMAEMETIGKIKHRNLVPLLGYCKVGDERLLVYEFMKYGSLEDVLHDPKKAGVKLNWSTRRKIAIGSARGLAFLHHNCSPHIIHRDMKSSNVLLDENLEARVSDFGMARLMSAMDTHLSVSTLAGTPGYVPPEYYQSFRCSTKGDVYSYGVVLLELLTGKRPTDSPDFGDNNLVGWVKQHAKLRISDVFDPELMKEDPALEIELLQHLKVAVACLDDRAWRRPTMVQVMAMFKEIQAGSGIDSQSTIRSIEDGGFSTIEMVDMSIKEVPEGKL
# Method: as §2
molecule,measurement,setting,value
"BKI1: BRI1-interacting protein of 337 amino acids, negative regulator of brassinosteroid signaling (SEQ ID NO:1) (protein, listed as Arabidopsis thaliana) METNLQQVKNSSQTFSEKQNPKQEASPSPISSTCSSPSHDFSFTISLQPLSSSSKHISPTLRSPSKTTSSYQQTDPFAVDLSPADEIFFHGHLLPLHLLSHLPVSPRTSTGSYNDGFTLPVKDILPDQPTNNNNNTENAITNISTEAKDDNTEDKAEGEIRVKTKPIKSFSLFGLSKWRKGFESNEREQEQQQQKIKKPMSLDLSHAVKKYIRMLFQKRGNGTQFWNRRQTSSYSFSSSLMGPNGNSKTMINGSYNKRDLIRGRRGELFSAPASMRTSPTNSGHLRVSTAGLSSSSGSTSSSSSDSTMEELQAAIQAAIAHCKNSSAVDRDDKVKDS",Km,BRI1 kinase,~1.55 µM
same,interaction with kinase domain of BRI1 in yeast,[1],associated specifically
same,interaction with kinase domain of CLV1 in yeast,CLV1,does not interact
same,interaction with kinase domain of BRL3 in yeast,BRL3,does not interact
same,interaction with kinase-inactive BRI1 relative to kinase active BRI1,[2],stronger
